Consider nine molecules from patent US20230183291A1 (Bicycle, published 2023).

Numbered stars: 1 amine (or outer) side, 2 acyl side, 3 side chain; on linkers, the order of the positions; unused ones are H or OH. Bridge positions count the residues as written; N and C are the ends. Square brackets hold non-standard residues; d marks the D form. Ends that are not written are not given here. TATA = O=C(CC[*:1])N1CN(C(=O)CC[*:2])CN(C(=O)CC[*:3])C1; Phe(4-Cl) = N[C@@H](Cc1ccc(Cl)cc1)C(=O)O; Hyp = O=C(O)[C@@H]1C[C@@H](O)CN1; hArg = N=C(N)NCCCC[C@H](N)C(=O)O; PYA = propargyl-acid

Experiment [1] addresses T1, Biotinylated Human ACE2, His, Avitag protein (ACROBiosystems, AC2-H82E6) (human, UniProt Q9BYF1 18-740).
T1 construct: also called biotinylated ACE2; ACE2 protein; not shown: His tag and Avitag
Kind of experiment: SPR multiple cycle kinetics, ACE2 captured on CAP chip, peptide analyte 6.25-100 nM; geometric mean. As for the experimental part: (§1) Binding of bicyclic peptides of the invention to Biotinylated Human ACE2, His, Avitag™ protein (ACROBiosystems, AC2-H82E6) was assessed by a MCK analysis. Experiments were performed at 25° C. on a Biacore T200 (Cytiva) running Biacore T200 Control software V2.0.1 and Evaluation software V3.0 (Cytiva). HBS-EP+(Cytiva) was used as running buffer as well as for ligand and analyte dilutions. Biotin CAPture reagent was loaded onto a Series S Sensor CAP Chip (Cytiva) followed by loading of biotinylated ACE2 at a flow rate of 2 μl/min. The surface was then allowed to stabilise.
MCK data was obtained using bicyclic peptides of the invention as analytes injected at a flow rate of 30 μl/min to minimise any potential mass transfer effects. A five point, two-fold dilution range from 6.25 nM to 100 nM of analyte was prepared in running buffer. For each concentration, the association phases were monitored for 250 seconds and the dissociation phase was measured for 450 seconds. Regeneration of the sensor chip surface was conducted between cycles using the CAP Chip standard regeneration buffer (Cytiva). Multiple repeats of a blank and of Bicycle were programmed into the kinetic run in order to check the stability of both the surface and analyte over the kinetic cycles.
(§2) The signal from the reference channel Fc1 (no ACE2 captured) was subtracted from that of Fc2, Fc3 and Fc4 to correct for bulk effect and differences in non-specific binding to a reference surface. The signal from each blank run (Fc2-ACE2 captured but no antigen) was subtracted to correct for differences in surface stability. The double referenced sensorgrams were fitted with the Langmuir (1:1) binding model (Equation 1a above) where the closeness of fit of the data to the model is evaluated using the Chi square value which describes the deviation between the experimental and fitted (observed and expected) curves (Equation 1 b above).

The target of experiment [2] is T1, Biotinylated Human ACE2, His, Avitag …. Kind of experiment: SPR single cycle kinetics, ACE2 captured on CAP chip, peptide analyte; geometric mean; * Rmax set to 10. Here is the method: (§3) Binding of bicyclic peptides of the invention to Biotinylated Human ACE2, His, Avitag™ protein (ACROBiosystems, AC2-H82E6) was assessed by a SCK analysis. Experiments were performed at 25° C. on a Biacore T200 (Cytiva) running Biacore T200 Control software V2.0.1 and Evaluation software V3.0 (Cytiva). HBS-EP+ (Cytiva) was used as running buffer as well as for ligand and analyte dilutions. Biotin CAPture reagent was loaded onto a Series S Sensor CAP Chip (Cytiva) followed by loading of the ACE2 protein at a flow rate of 2 μl/min. The surface was then allowed to stabilise.
(§4) SCK data was obtained using bicyclic peptides of the invention as analytes injected at a flow rate of 30 μl/min to minimise any potential mass transfer effects. […] The association phases were monitored for 100 seconds for each of the four injections of increasing concentrations of analyte and a single dissociation phase was measured for 400 seconds following the last injection of analyte. Regeneration of the sensor chip surface was conducted using the CAP Chip standard regeneration buffer (Cytiva).
as §2, with “below)” for “above)”, “1b below).” for “1 b above).”

The target is the same in experiment [3]. Kind of experiment: SPR single cycle kinetics, biotinylated ACE2 captured on CAP chip, peptide as analyte. As for the experimental part: as §3, §4
(§5) The signal from the reference channel Fc1 (no ACE2 captured) was subtracted from that of Fc2, Fc3 and Fc4 to correct for bulk effect and differences in non-specific binding to a reference surface. The signal from each blank run (Fc2-ACE2 captured but no antigen) was subtracted to correct for differences in surface stability. […]

Experiment [4] shares this target. Kind of experiment: SPR single cycle kinetics, ACE2 captured on CAP chip, peptide analyte; geometric mean; † high bulk contribution observed, treat with caution. Here is the method: as §3, §4, §5
The target is the same in experiment [5]. Briefly: SPR multiple cycle kinetics, biotinylated ACE2 captured on CAP chip, peptide as analyte. Here is the method: as §1
MCK data was obtained using bicyclic peptides of the invention as analytes injected at a flow rate of 30 μl/min to minimise any potential mass transfer effects. […] For each concentration, the association phases were monitored for 250 seconds and the dissociation phase was measured for 450 seconds. […]
The signal from the reference channel Fc1 (no ACE2 captured) was subtracted from that of Fc2, Fc3 and Fc4 to correct for bulk effect and differences in non-specific binding to a reference surface. […] The double referenced sensorgrams were fitted with the Langmuir (1:1) binding model (Equation 1a above) where the closeness of fit of the data to the model is evaluated using the Chi square value which describes the deviation between the experimental and fitted (observed and expected) curves (Equation 1 b above).

T1 sequence (Q9BYF1 18-740 limits assumed): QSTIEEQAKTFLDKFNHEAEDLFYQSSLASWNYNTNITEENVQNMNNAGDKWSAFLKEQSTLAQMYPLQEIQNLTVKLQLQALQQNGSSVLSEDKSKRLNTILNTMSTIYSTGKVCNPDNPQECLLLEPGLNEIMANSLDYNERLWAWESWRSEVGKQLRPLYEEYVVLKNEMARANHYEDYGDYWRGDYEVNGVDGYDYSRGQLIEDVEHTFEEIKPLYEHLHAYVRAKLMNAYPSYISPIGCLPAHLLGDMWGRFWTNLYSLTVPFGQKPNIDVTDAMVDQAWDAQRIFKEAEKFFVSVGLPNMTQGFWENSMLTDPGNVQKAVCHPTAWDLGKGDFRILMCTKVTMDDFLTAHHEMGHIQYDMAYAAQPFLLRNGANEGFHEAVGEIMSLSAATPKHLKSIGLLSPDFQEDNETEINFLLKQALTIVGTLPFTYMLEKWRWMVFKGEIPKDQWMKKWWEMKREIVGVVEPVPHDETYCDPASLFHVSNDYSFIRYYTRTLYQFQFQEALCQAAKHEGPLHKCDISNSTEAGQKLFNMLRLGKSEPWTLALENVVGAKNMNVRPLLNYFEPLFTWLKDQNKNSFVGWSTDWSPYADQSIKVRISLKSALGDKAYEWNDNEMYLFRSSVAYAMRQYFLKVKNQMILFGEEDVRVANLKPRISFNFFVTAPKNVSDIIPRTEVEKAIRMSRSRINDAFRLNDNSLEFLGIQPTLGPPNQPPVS

Broadly, the Kd is the equilibrium constant for the complex coming apart. In the case of Ac-CNTVLCGWARANSLCK(PYA) (linker 1-6-15 via TATA, bicyclic peptide, TATA scaffold) [BCY18550], the Kd came out at 15.6 nM in experiment [1] and 9.7 nM in experiment [2].

With Ac-CNAVLCSWA[hArg]ANSFC (linker 1-6-15 via TATA, bicyclic peptide, TATA scaffold) [BCY18259], the dissociation constant (Kd) in experiment [1] is 13 nM; in experiment [2] it was 23 nM.

Consider Ac-CNDVLCSWA[hArg]ANSFC (linker 1-6-15 via TATA, bicyclic peptide, TATA scaffold) [BCY18659], for which the binding result in experiment [3] is reported as “no binding”.

For the molecule Ac-CNEVLCSWA[hArg]ANSFC (linker 1-6-15 via TATA, bicyclic peptide, TATA scaffold) [BCY18783], the binding result in experiment [3] is listed as “no binding”.

With ACNAVLCSWARANSFCAK(PYA) (linker 2-7-16 via TATA, bicyclic peptide, TATA scaffold) [BCY17344], binding in experiment [4] was put at a Kd of 3.2 nM. In other words, the single-digit nanomolar range.

On to Ac-CNTVLCGWA[hArg]ANSLCAK(PYA) (linker 1-6-15 via TATA, bicyclic peptide, TATA scaffold) [BCY18549], for which the Kd in experiment [1] came out at 42.9 nM; in experiment [2], 63.9 nM.

In experiment [4], ACNAVLCSWARANS[Phe(4-Cl)]CA (linker 2-7-16 via TATA, bicyclic peptide, TATA scaffold) [BCY17340] had a Kd of 16.9 nM.

Turning to Ac-CNAVLCSWA[hArg][Hyp]NSFC (linker 1-6-15 via TATA, bicyclic peptide, TATA scaffold) [BCY19024], the binding result in experiment [5] is on record as “no binding”.

Take Ac-CNTVLCGWA[hArg]ANSLCK(PYA) (linker 1-6-15 via TATA, bicyclic peptide, TATA scaffold) [BCY18551]: the Kd in experiment [1] is 19.5 nM; in experiment [2], 15.4 nM.
